Measured values from paper PMC6797804, “Histone H3K23-specific acetylation by MORF is coupled to H3K14 acylation” (Nature Communications, 2019).
Substitutions are numbered along the chain they refer to. Values belong to the binder of their own block, whether it stands above or below them. Ends that are not written are not given here. * marks the point of attachment. Crotonyl(E) = C/C=C/C(=O)*; Butyryl = CCCC(=O)*

Experiments:
[1] = target: T1, MORF DPF domain (residues 211–322) F287A (human, UniProt Q8WYB5 211-322, F287A); test: NMR titration; 1H,15N HSQC at 298 K; H3 peptides (residues 1–19) titrated into 0.1–0.25 mM 15N-labeled WT or mutated MORFDPF in 1×PBS pH 6.5, 5 mM DTT, 8–10% D2O; details: both partners purified
T1 construct: MORF (KAT6B) double PHD finger (DPF), residues 211–322; also called MORFDPF F287A mutant; source: E. coli Rosetta2 (DE3) pLysS, purified (glutathione Sepharose 4B); 15N-labeled
T1 sequence (looked up): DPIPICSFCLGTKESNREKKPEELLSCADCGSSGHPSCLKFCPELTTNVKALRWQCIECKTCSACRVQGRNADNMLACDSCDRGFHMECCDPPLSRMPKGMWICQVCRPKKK

[2] = target: T1, MORF DPF domain (residues 211–322) F287A; test: cell-based or functional assay
[3] = target: T2, MORF DPF domain (residues 211–322), wild type (human, UniProt Q8WYB5 211-322); test: other fluorescence titration; tryptophan fluorescence, 25 °C; 0.8–2 µM MORFDPF in PBS pH 6.5 with 5 mM DTT, increasing concentrations of H3 peptides (residues 1–19); excitation 295 nm; details: both partners purified
T2 construct: MORF (KAT6B) double PHD finger (DPF), residues 211–322; The methods say the GST tag was either cleaved with thrombin or left on; also called WT MORFDPF; DPF domain of MORF; source: E. coli Rosetta2 (DE3) pLysS, purified (glutathione Sepharose 4B, size exclusion); unlabeled or 15N-labeled
T2 sequence (looked up): T1 sequence (looked up) with A77F

[4] = target: T3, MORF DPF domain (residues 211–322) F218A (human, UniProt Q8WYB5 211-322, F218A); test: as above; details: both partners purified
T3 construct: MORF (KAT6B) double PHD finger (DPF), residues 211–322; also called MORFDPF F218A mutant; source: E. coli Rosetta2 (DE3) pLysS, purified (glutathione Sepharose 4B, size exclusion)
T3 sequence (looked up): T1 sequence (looked up) with F8A, A77F

fold decrease in binding against the WT protein [1]: ~1000 fold
B1: unmodified histone H3 peptide (residues 1–19 of H3) (peptide, UniProt P68431 2-20, looked up)
peptide: ARTKQTARKSTGGKAPRKQ
notes: histone H3 N-terminal tail, residues 1–19; source: synthetic peptide

HAT activity of the MORFN F287A complex against the wild-type MORFN complex on H3K14cr peptide (residues 1–29), liquid HAT assay [2]: 2 fold | Kd [3]: 700 nM | binding result [4]: binds
B2: histone H3K14cr peptide (residues 1–19 of H3) (peptide, UniProt P68431 2-20, looked up)
peptide: ARTKQTARKSTGGK(Crotonyl(E))APRKQ
notes: as for B1

binding result [4]: binds
B3: histone H3K14bu peptide (residues 1–19 of H3) (peptide, UniProt P68431 2-20, looked up)
peptide: ARTKQTARKSTGGK(Butyryl)APRKQ
notes: as for B1
